Data taken from the supplement of paper PMC10567573.

B1: ZNF75A (parent)
chain: RTHTGEQPYTCSICRRNFSRRSSL

Variants of: B1
Assay: protein stability index of a GFP-peptide fusion (GPS, HEK-293T) (PSI 1-6); higher = more stable
Details: c terminus: a fixed tail appended
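Further: lentivirally expressed fusions sorted by FACS into six bins by GFP to DsRed ratio, PSI derived from sequencing read proportions per bin multiplied by bin number.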

Variant | protein stability index
RTHTGEHPYTCSICRRNFSRRSSL [Q7H] | 2.63
RTHTGETPYTCSICRRNFSRRSSL [Q7T] | 2.49
RTHTGECPYTCSICRRNFSRRSSL [Q7C] | 4.67
RTHTGEPPYTCSICRRNFSRRSSL [Q7P] | 2.57
RTHTGEYPYTCSICRRNFSRRSSL [Q7Y] | 2.36
RTHTGEDPYTCSICRRNFSRRSSL [Q7D] | 3.42
RTHTGEEPYTCSICRRNFSRRSSL [Q7E] | 3.43
RTHTGELPYTCSICRRNFSRRSSL [Q7L] | 2.7
RTHTGEMPYTCSICRRNFSRRSSL [Q7M] | 2.68
RTHTGEKPYTCSICRRNFSRRSSL [Q7K] | 2.59
RTHTGEVPYTCSICRRNFSRRSSL [Q7V] | 2.41
RTHTGERPYTCSICRRNFSRRSSL [Q7R] | 2.96
RTHTGENPYTCSICRRNFSRRSSL [Q7N] | 2.6
RTHTGESPYTCSICRRNFSRRSSL [Q7S] | 2.24
RTHTGEWPYTCSICRRNFSRRSSL [Q7W] | 2.83
RTHTGEAPYTCSICRRNFSRRSSL [Q7A] | 3.14
RTHTGEFPYTCSICRRNFSRRSSL [Q7F] | 2.8
RTHTGEGPYTCSICRRNFSRRSSL [Q7G] | 2.45
RTHTGEIPYTCSICRRNFSRRSSL [Q7I] | 2.63
RTHTGEQHYTCSICRRNFSRRSSL [P8H] | 3.19
RTHTGEQLYTCSICRRNFSRRSSL [P8L] | 2.87
RTHTGEQCYTCSICRRNFSRRSSL [P8C] | 2.52
RTHTGEQAYTCSICRRNFSRRSSL [P8A] | 2.97
RTHTGEQEYTCSICRRNFSRRSSL [P8E] | 3.95

Variant | protein stability index
RTHTGEQKYTCSICRRNFSRRSSL [P8K] | 3.13
RTHTGEQMYTCSICRRNFSRRSSL [P8M] | 3.06
RTHTGEQRYTCSICRRNFSRRSSL [P8R] | 2.35
RTHTGEQWYTCSICRRNFSRRSSL [P8W] | 3.05
RTHTGEQVYTCSICRRNFSRRSSL [P8V] | 3.4
RTHTGEQIYTCSICRRNFSRRSSL [P8I] | 2.99
RTHTGEQYYTCSICRRNFSRRSSL [P8Y] | 3.16
RTHTGEQFYTCSICRRNFSRRSSL [P8F] | 3.09
RTHTGEQSYTCSICRRNFSRRSSL [P8S] | 2.81
RTHTGEQNYTCSICRRNFSRRSSL [P8N] | 3.01
RTHTGEQTYTCSICRRNFSRRSSL [P8T] | 3.76
RTHTGEQQYTCSICRRNFSRRSSL [P8Q] | 2.85
RTHTGEQGYTCSICRRNFSRRSSL [P8G] | 3.4
RTHTGEQDYTCSICRRNFSRRSSL [P8D] | 3.4
RTHTGRQPYTCSICRRNFSRRSSL [E6R] | 2.58
RTHTGGQPYTCSICRRNFSRRSSL [E6G] | 2.55
RTHTGAQPYTCSICRRNFSRRSSL [E6A] | 2.86
RTHTGLQPYTCSICRRNFSRRSSL [E6L] | 2.52
RTHTGCQPYTCSICRRNFSRRSSL [E6C] | 3.96
RTHTGIQPYTCSICRRNFSRRSSL [E6I] | 3.05
RTHTGKQPYTCSICRRNFSRRSSL [E6K] | 2.97
RTHTGNQPYTCSICRRNFSRRSSL [E6N] | 2.5
RTHTGPQPYTCSICRRNFSRRSSL [E6P] | 2.63
RTHTGWQPYTCSICRRNFSRRSSL [E6W] | 2.02

Variant | protein stability index
RTHTGFQPYTCSICRRNFSRRSSL [E6F] | 3.33
RTHTGQQPYTCSICRRNFSRRSSL [E6Q] | 2.62
RTHTGMQPYTCSICRRNFSRRSSL [E6M] | 2.5
RTHTGVQPYTCSICRRNFSRRSSL [E6V] | 1.93
RTHTGDQPYTCSICRRNFSRRSSL [E6D] | 2.49
RTHTGYQPYTCSICRRNFSRRSSL [E6Y] | 2.44
RTHTGHQPYTCSICRRNFSRRSSL [E6H] | 3.12
RTHTGTQPYTCSICRRNFSRRSSL [E6T] | 2.94
RTHTGSQPYTCSICRRNFSRRSSL [E6S] | 2.3
RMHTGEQPYTCSICRRNFSRRSSL [T2M] | 2.68
RDHTGEQPYTCSICRRNFSRRSSL [T2D] | 3.02
RSHTGEQPYTCSICRRNFSRRSSL [T2S] | 2.53
RLHTGEQPYTCSICRRNFSRRSSL [T2L] | 2.82
RHHTGEQPYTCSICRRNFSRRSSL [T2H] | 3.33
RCHTGEQPYTCSICRRNFSRRSSL [T2C] | 3.17
RVHTGEQPYTCSICRRNFSRRSSL [T2V] | 2.88
RWHTGEQPYTCSICRRNFSRRSSL [T2W] | 2.17
RKHTGEQPYTCSICRRNFSRRSSL [T2K] | 2.47
RFHTGEQPYTCSICRRNFSRRSSL [T2F] | 3.15
RIHTGEQPYTCSICRRNFSRRSSL [T2I] | 2.63
RYHTGEQPYTCSICRRNFSRRSSL [T2Y] | 2.81
RNHTGEQPYTCSICRRNFSRRSSL [T2N] | 2.52
RRHTGEQPYTCSICRRNFSRRSSL [T2R] | 3.46
REHTGEQPYTCSICRRNFSRRSSL [T2E] | 2.78

Variant | protein stability index
RGHTGEQPYTCSICRRNFSRRSSL [T2G] | 2.77
RQHTGEQPYTCSICRRNFSRRSSL [T2Q] | 2.38
RAHTGEQPYTCSICRRNFSRRSSL [T2A] | 3.58
RTHTCEQPYTCSICRRNFSRRSSL [G5C] | 4.64
RTHTIEQPYTCSICRRNFSRRSSL [G5I] | 3.82
RTHTEEQPYTCSICRRNFSRRSSL [G5E] | 3.45
RTHTPEQPYTCSICRRNFSRRSSL [G5P] | 2.78
RTHTQEQPYTCSICRRNFSRRSSL [G5Q] | 2.81
RTHTYEQPYTCSICRRNFSRRSSL [G5Y] | 2.21
RTHTNEQPYTCSICRRNFSRRSSL [G5N] | 2.81
RTHTREQPYTCSICRRNFSRRSSL [G5R] | 3.07
RTHTMEQPYTCSICRRNFSRRSSL [G5M] | 2.86
RTHTWEQPYTCSICRRNFSRRSSL [G5W] | 2.55
RTHTKEQPYTCSICRRNFSRRSSL [G5K] | 2.74
RTHTSEQPYTCSICRRNFSRRSSL [G5S] | 2.61
RTHTVEQPYTCSICRRNFSRRSSL [G5V] | 2.76
RTHTTEQPYTCSICRRNFSRRSSL [G5T] | 3.25
RTHTDEQPYTCSICRRNFSRRSSL [G5D] | 3.06
RTHTLEQPYTCSICRRNFSRRSSL [G5L] | 2.73
RTHTFEQPYTCSICRRNFSRRSSL [G5F] | 3.38
RTHTAEQPYTCSICRRNFSRRSSL [G5A] | 2.98
RTHTHEQPYTCSICRRNFSRRSSL [G5H] | 3.52
